These results are taken from patent publication US20250051413A1.

The target of this assay is human IL-12 receptor (b1 and b2 chain) (human) (UniProt P42701). The experiment in a line: cell-based or functional assay.
Sequence of human IL-12 receptor (b1 and b2 chain) (human) (Q99665 24-862, chain 2 of 2, other chains not shown): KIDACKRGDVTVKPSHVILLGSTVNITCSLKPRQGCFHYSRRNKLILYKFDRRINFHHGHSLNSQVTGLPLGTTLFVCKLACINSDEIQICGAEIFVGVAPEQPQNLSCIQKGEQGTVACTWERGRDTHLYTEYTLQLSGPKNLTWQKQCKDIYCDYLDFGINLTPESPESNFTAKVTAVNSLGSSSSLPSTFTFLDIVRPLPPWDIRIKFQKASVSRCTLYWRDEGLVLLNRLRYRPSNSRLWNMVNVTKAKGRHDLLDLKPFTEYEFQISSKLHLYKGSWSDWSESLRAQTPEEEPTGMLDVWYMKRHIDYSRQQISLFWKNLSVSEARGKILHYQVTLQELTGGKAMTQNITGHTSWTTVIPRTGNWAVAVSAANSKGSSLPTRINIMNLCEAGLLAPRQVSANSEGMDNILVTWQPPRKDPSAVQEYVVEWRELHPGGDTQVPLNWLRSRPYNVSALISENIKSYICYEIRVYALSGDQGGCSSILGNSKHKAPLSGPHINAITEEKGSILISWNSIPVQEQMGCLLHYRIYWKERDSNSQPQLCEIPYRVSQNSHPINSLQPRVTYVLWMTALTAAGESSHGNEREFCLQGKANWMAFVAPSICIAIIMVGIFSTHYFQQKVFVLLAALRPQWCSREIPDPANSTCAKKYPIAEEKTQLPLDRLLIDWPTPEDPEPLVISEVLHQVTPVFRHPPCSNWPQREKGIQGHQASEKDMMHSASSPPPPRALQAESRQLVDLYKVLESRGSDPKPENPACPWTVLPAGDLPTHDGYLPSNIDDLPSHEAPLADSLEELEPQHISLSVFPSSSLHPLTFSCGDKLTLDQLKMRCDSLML

Sequence of Human recombinant IL-12 (P29460 23-328 limits assumed): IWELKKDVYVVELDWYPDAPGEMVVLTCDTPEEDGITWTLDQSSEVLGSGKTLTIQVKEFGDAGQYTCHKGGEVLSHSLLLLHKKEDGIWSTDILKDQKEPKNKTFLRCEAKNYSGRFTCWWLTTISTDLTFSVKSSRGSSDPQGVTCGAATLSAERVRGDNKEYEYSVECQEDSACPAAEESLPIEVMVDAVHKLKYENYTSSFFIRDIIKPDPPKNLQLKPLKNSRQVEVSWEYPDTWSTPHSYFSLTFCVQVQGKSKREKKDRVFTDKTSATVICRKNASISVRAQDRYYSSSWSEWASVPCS
Sequence of Human recombinant IL-12 (P29459 23-219 limits assumed): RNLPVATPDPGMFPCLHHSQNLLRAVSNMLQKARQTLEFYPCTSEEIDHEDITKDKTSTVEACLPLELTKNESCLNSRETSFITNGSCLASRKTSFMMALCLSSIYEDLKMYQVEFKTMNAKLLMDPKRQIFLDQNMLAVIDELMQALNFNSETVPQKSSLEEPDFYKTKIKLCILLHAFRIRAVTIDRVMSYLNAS

In turn, “Human recombinant IL-12 (from UniProt P29460 23-328; P29459 23-219) (ligand)” came in with an E-max (Maximal response), p-STAT4 positive cells, CD8+ T cells and NK cells of 60 to 80%; an EC50 of p-STAT4 induction in human PBMC, CD4+ T cells of 0.072 nM; an EC50 of p-STAT4 induction in human PBMC, CD8+ T cells of 0.045 nM; an EC50 of p-STAT4 induction in human PBMC, NK cells of 0.166 nM.
